One protein from ChEMBL document CHEMBL2074115, “Anthracyclines modulate multidrug resistance protein (MRP) mediated organic anion transport” (Biochim Biophys Acta, 1997) can be followed below.

The Km is the concentration of substrate that gives half-maximal velocity.

Substrate in data set [1]: N[C@@H](CCC(=O)N[C@@H](CSSC[C@H](NC(=O)CC[C@H](N)C(=O)O)C(=O)NCC(=O)O)C(=O)NCC(=O)O)C(=O)O
The data set can be described thus: (§1) TP_TRANSPORTER: uptake in membrane vesicles from GLC4/ADR cells. The class given is functional, cell membranes, GLC-4/ADR, Membrane vesicle.

Substrate in data set [2]: N[C@@H](CCC(=O)N[C@H](CSc1ccc([N+](=O)[O-])cc1[N+](=O)[O-])C(=O)NCC(=O)O)C(=O)O
The data set is described as §1. In kind it is functional, cell membranes, GLC-4/ADR, Membrane vesicle.

B1: Multidrug resistance-associated protein 1 (Homo sapiens) (protein)
chain: MALRGFCSADGSDPLWDWNVTWNTSNPDFTKCFQNTVLVWVPCFYLWACFPFYFLYLSRHDRGYIQMTPLNKTKTALGFLLWIVCWADLFYSFWERSRGIFLAPVFLVSPTLLGITMLLATFLIQLERRKGVQSSGIMLTFWLVALVCALAILRSKIMTALKEDAQVDLFRDITFYVYFSLLLIQLVLSCFSDRSPLFSETIHDPNPCPESSASFLSRITFWWITGLIVRGYRQPLEGSDLWSLNKEDTSEQVVPVLVKNWKKECAKTRKQPVKVVYSSKDPAQPKESSKVDANEEVEALIVKSPQKEWNPSLFKVLYKTFGPYFLMSFFFKAIHDLMMFSGPQILKLLIKFVNDTKAPDWQGYFYTVLLFVTACLQTLVLHQYFHICFVSGMRIKTAVIGAVYRKALVITNSARKSSTVGEIVNLMSVDAQRFMDLATYINMIWSAPLQVILALYLLWLNLGPSVLAGVAVMVLMVPVNAVMAMKTKTYQVAHMKSKDNRIKLMNEILNGIKVLKLYAWELAFKDKVLAIRQEELKVLKKSAYLSAVGTFTWVCTPFLVALCTFAVYVTIDENNILDAQTAFVSLALFNILRFPLNILPMVISSIVQASVSLKRLRIFLSHEELEPDSIERRPVKDGGGTNSITVRNATFTWARSDPPTLNGITFSIPEGALVAVVGQVGCGKSSLLSALLAEMDKVEGHVAIKGSVAYVPQQAWIQNDSLRENILFGCQLEEPYYRSVIQACALLPDLEILPSGDRTEIGEKGVNLSGGQKQRVSLARAVYSNADIYLFDDPLSAVDAHVGKHIFENVIGPKGMLKNKTRILVTHSMSYLPQVDVIIVMSGGKISEMGSYQELLARDGAFAEFLRTYASTEQEQDAEENGVTGVSGPGKEAKQMENGMLVTDSAGKQLQRQLSSSSSYSGDISRHHNSTAELQKAEAKKEETWKLMEADKAQTGQVKLSVYWDYMKAIGLFISFLSIFLFMCNHVSALASNYWLSLWTDDPIVNGTQEHTKVRLSVYGALGISQGIAVFGYSMAVSIGGILASRCLHVDLLHSILRSPMSFFERTPSGNLVNRFSKELDTVDSMIPEVIKMFMGSLFNVIGACIVILLATPIAAIIIPPLGLIYFFVQRFYVASSRQLKRLESVSRSPVYSHFNETLLGVSVIRAFEEQERFIHQSDLKVDENQKAYYPSIVANRWLAVRLECVGNCIVLFAALFAVISRHSLSAGLVGLSVSYSLQVTTYLNWLVRMSSEMETNIVAVERLKEYSETEKEAPWQIQETAPPSSWPQVGRVEFRNYCLRYREDLDFVLRHINVTINGGEKVGIVGRTGAGKSSLTLGLFRINESAEGEIIIDGINIAKIGLHDLRFKITIIPQDPVLFSGSLRMNLDPFSQYSDEEVWTSLELAHLKDFVSALPDKLDHECAEGGENLSVGQRQLVCLARALLRKTKILVLDEATAAVDLETDDLIQSTIRTQFEDCTVLTIAHRLNTIMDYTRVIVLDKGEIQEYGAPSDLLQQRGLFYSMAKDAGLV
On to B1, for which the Km in data set [1] was 43 µM; in data set [2] it was 1.2 µM.
